These results are taken from IntAct's records for PubMed 20346719.

Sequences and labels used below:
B1: Flagellar brake protein YcgR (Escherichia coli (strain K12)), P76010 (parent)
chain: MSHYHEQFLKQNPLAVLGVLRDLHKAAIPLRLSWNGGQLISKLLAITPDKLVLDFGSQAEDNIAVLKAQHITITAETQGAKVEFTVEQLQQSEYLQLPAFITVPPPTLWFVQRRRYFRISAPLHPPYFCQTKLADNSTLRFRLYDLSLGGMGALLETAKPAELQEGMRFAQIEVNMGQWGVFHFDAQLISISERKVIDGKNETITTPRLSFRFLNVSPTVERQLQRIIFSLEREAREKADKVRD
partner: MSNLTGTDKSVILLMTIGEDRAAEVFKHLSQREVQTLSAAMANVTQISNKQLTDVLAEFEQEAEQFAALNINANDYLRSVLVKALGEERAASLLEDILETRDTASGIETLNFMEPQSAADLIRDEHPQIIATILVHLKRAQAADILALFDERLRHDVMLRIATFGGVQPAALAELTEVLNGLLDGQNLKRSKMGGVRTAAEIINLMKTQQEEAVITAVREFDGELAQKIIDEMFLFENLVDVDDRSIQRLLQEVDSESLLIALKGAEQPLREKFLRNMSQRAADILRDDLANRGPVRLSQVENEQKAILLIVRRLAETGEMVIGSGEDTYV
B2: Flagellar brake protein YcgR (Escherichia coli (strain K12)), P76010 (parent)
chain: B1 chain
partner: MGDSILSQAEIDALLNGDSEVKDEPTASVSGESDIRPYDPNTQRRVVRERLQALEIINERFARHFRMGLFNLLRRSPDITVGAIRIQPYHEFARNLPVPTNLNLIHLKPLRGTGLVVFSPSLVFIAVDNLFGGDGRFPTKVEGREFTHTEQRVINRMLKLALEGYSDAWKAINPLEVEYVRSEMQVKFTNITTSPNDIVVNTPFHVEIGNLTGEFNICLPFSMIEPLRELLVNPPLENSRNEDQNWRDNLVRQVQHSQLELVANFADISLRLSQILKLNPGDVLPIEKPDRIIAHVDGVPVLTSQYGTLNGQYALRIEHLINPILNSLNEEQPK

The variants in one experiment derive from B1. Particulars: with flig_ecoli fliG.
In the case of MSHYHEQFLKQNPLAVLGVLRDLHKAAIPLRLSWNGGQLISKLLAITPDKLVLDFGSQAEDNIAVLKAQHITITAETQGADVEFTVEQLQQSEYLQLPAFITVPPPTLWFVQRRRYFRISAPLHPPYFCQTKLADNSTLRFRLYDLSLGGMGALLETAKPAELQEGMRFAQIEVNMGQWGVFHFDAQLISISERKVIDGKNETITTPRLSFRFLNVSPTVERQLQRIIFSLEREAREKADKVRD [K81D], the “effect of a mutation on the interaction” value is listed as “decreasing interaction”.

Take MSHYHEQFLKQNPLAVLGVLRDLHKAAIPLRLSWNGGQLISKLLAITPDKLVLDFGSQAEDWIAVLKAQHITITAETQGAKVEFTVEQLQQSEYLQLPAFITVPPPTLWFVQRRRYFRISAPLHPPYFCQTKLADNSTLRFRLYDLSLGGMGALLETAKPAELQEGMRFAQIEVNMGQWGVFHFDAQLISISERKVIDGKNETITTPRLSFRFLNVSPTVERQLQRIIFSLEREAREKADKVRD [N62W]: the “effect of a mutation on the interaction” value is recorded as “decreasing interaction”.

In the next experiment the parent is B2. Particulars: with flim_ecoli fliM.
Consider MSHYHEQFLKQNPLAVLGVLRDLHKAAIPLRLSWNGGQLISKLLAITPDKLVLDFGSQAEDNIAVLKAQHITITAETQGAKVEFTVEQLQQSEYLQLPAFITVPPPTLWFVQRRRYFRISAPLHPPYFCQTKLADNSTLRFRLYDLSLGGMGALLETAKPAELQEGMRFAQIEVNMGQWGVFHFDAQLISISERKVIDGKNETITTPRLSFRFLNVSPTVERQLQRWIFSLEREAREKADKVRD [I227W], for which the “effect of a mutation on the interaction” value is “disrupting interaction”.

With MSHYHEQFLKQNPLAVLGVLRDLHKAAIPLRLSWNGGQLISKLLAITPDKLVLDFGSQAEDNIAVLKAQHITITAETQGAKVEFTVEQLQQSEYLQLPAFITVPPPTLWFVQRRRYFRISAPLHPPYFCQTKLADNSTLRFRLYDLSLGGMGALLETAKPAELQEGMRFAQIEVNMGQWGVFHFDAQLISISERKVIDGKNETITTPRLSFRFLNVSPTVERPLQRIIFSLEREAREKADKVRD [Q223P], the “effect of a mutation on the interaction” value is on record as “disrupting interaction”.
